Results taken from article PMC2141752 (The Journal of Cell Biology, 1998).

B1: canine caveolin-2 (natural protein)
chain: MGLETEKADVQLCMDDDAYSRHSAVDFGDLEQLADSGSDRDPRRLNSHLQVGFEDVIAEPVSTHSFDKVWICSHALFEVSKYVIYKFLTLLLAMPMAFAAGVLFATLSCLHIWIIMPFVKTCLMVLPSVQTIWKSVTDAVIAPLCSSVGRSFSSVSLQVSHD
modifications: phosphorylated at steady state (sites not given)
B2: α–caveolin-1 (natural protein)
chain: MSGGKYVDSEGHLYTVPIREQGNIYKPNNKAMAEEMSEKQVYDAHTKEIDLVNRDPKHLNDDVVKIDFEDVIAEPEGTHSFDGIWKASFTTFTVTKYWFYRLLSALFGIPMALIWGIYFAILSFLHIWAVVPCIKSFLIEIQCISRVYSIYVHTFCDPFFEAVGKIFSNIRINMQKET

Assays:
α–caveolin-1 = target: B2; assay: co-IP
canine caveolin-2 = target: B1; assay: co-IP

B1
ratio in the immunoprecipitate (α–caveolin-1): ~0.5 caveolin-2 per α–caveolin-1

B2
ratio in the immunoprecipitate (canine caveolin-2): ~1 α–caveolin-1 per caveolin-2

B3: β–caveolin-1 (natural protein)
chain: MAEEMSEKQVYDAHTKEIDLVNRDPKHLNDDVVKIDFEDVIAEPEGTHSFDGIWKASFTTFTVTKYWFYRLLSALFGIPMALIWGIYFAILSFLHIWAVVPCIKSFLIEIQCISRVYSIYVHTFCDPFFEAVGKIFSNIRINMQKET
ratio in the immunoprecipitate (canine caveolin-2): ~1 β–caveolin-1 per caveolin-2
ratio in the immunoprecipitate (α–caveolin-1): ~1 β–caveolin-1 per α–caveolin-1
